# Experimental data from patent publication US20250152742A1, “COMPOSITIONS AND METHODS FOR NEUROLOGICAL DISEASES” (Trames Bio, Inc., priority 2022, published 2025).
# B1: CODA238: engineered receptor: R101W in SEQ ID NO: 33 (protein)
# chain: MRCSPGGVWLALAASLLHVSLQGEFQRKLYKELVKNYNPLERPVANDSQPLTVYFSLSLLQIMDVDEKNQVLTTNIWLQMSWTDHYLQWNVSEYPGVKTVWFPDGQIWKPDILLYNSADERFDATFHTNVLVNSSGHCQYLPPGIFKSSCPMDLKNFPMDVQTCKLKFGSWSYGGWSLDLQMQEADISGYIPNGEWDLVGIPGKRSERFYECCKEPYPDVTFTVTMRRRMGYYLIQMYIPSLLIVILSWISFWINMDAAPARVGLGITTVLTMTTQSSGSRASLPKVSYVKAIDIWMAVCLLFVFSALLEYAAVNFVSRQHKELLRFRRKRRHHKSPMLNLFQEDEAGEGRFNFSAYGMGPACLQAKDGISVKGANNSNTTNPPPAPSKSPEEMRKLFIQRAKKIDKISRIGFPMAFLIFNMFYWIIYKIVRREDVHNQ
# modifications: synthetic sequence of chimeric LGIC
# Test system: engineered chimeric receptor SEQ ID NO: 33 and its mutants (human α7-nAChR ligand binding domain / human GlyRα1 ion pore domain) in Lenti-X 293T cells
# Experiment: YFP fluorescence quenching anion reporter plate reader assay (percent quench, EC50)
# Type: cell-based
# Details: for YFP fluorescence quenching using CNL001 (percent quench): receptor named in row; for YFP fluorescence quenching using Varenicline, 3 nM var: ligand Varenicline 3 nM; for YFP fluorescence quenching using Varenicline, 30 nM var: ligand Varenicline 30 nM; for YFP fluorescence quenching using Varenicline, 300 nM var: ligand Varenicline 300 nM; for YFP fluorescence quenching using Varenicline, 500 nM var: ligand Varenicline 500 nM; for YFP fluorescence quenching using Varenicline, 1 uM var: ligand Varenicline 1 uM
# Text: To screen these mutant LGICs for those having novel response profiles to ligands, an anion reporter assay was developed to assess the function of the LGICs in a high throughput format. In this assay, cells expressing a YFP reporter whose fluorescence is quenched in the presence of anion are transfected with DNA encoding the channel of interest. Upon exposure to ligand, channels that are activated will flux anion, resulting in a dose-dependent quench of the YFP that can be detected on a plate reader. The greater the quench signal (i.e., the more positive the value), the higher the ligand activity on the receptor is.
# Lenti-X 293T cells (LX293T, Clontech) were maintained in DMEM containing 10% FBS and 1% penicillin/streptomycin (Invitrogen). […] Two days before assay, cells were split at a density of 20,000 cells/well in a 96-well tissue culture plate coated with poly-d lysine (Thermo Scientific). The next day, the cells were transiently transfected with 0.1 μg of DNA per well using standard Fugene protocol (Promega). On the day of assay, cells were washed 2 times in 1X extracellular solution (1X ECS: 140 mM NaCl, 5 mM KCl, 1 mM MgCl2, 2 mM CaCl2, 10 mM HEPES, 10 mM glucose, pH 7.2, mOsms 300). After the last wash, 100 μL of 1X ECS was added to the wells and the plate was incubated at 37° C. for 30 min. While incubating the plate, the drugs were diluted to a 2X concentration in 1X ECS-Nal (same components as 1X ECS except the 140 mM NaCl was replaced by 140 mM Nal). The plates were then read on a Flexstation3 (Molecular Devices). Each well, 8 wells at a time, of the plate is read for 2 min using a Flexstation3 (Molecular Devices) as follows: 1) a baseline YFP fluorescence is read for 17 sec, 2) 100 μL of ligand is added, and 3) the changes in YFP fluorescence are then measured every 1.3 sec for 1 minute and 43 seconds. The percent quench is calculated from the average fluorescence of the last 10 seconds of the read divided by the baseline average of the first 15 seconds prior to the ligand addition.
# FIGS. 1A-1J provide heat maps of the percent quench of YFP fluorescence following stimulation by various doses of either acetylcholine or the non-native ligand as indicated in the Figures. CODA71 (SEQ ID NO: 33) was used as a control, and CODA75 (SEQ ID NO: 29, a non-responding chimeric engineered receptor) was used as the negative control. Quenching of the fluorescence signal, as indicated by blue shaded cells, indicate the level of engineered receptor activation by the non-native ligand at that concentration.
molecule,measurement,setting,value
B1,YFP fluorescence quenching using CNL001 (percent quench),"1 nM CNL001, first column so headed",32.42%
same,YFP fluorescence quenching using CNL001 (percent quench),"1 nM CNL001, second column so headed",54.768%
same,YFP fluorescence quenching using TC-5619/Bradanicline (percent quench),3 nM brd (TC-5619/Bradanicline),74.7%
same,YFP fluorescence quenching using CNL001 (percent quench),"10 nM CNL001, first column so headed",75.149%
same,YFP fluorescence quenching using CNL001 (percent quench),"10 nM CNL001, second column so headed",75.339%
same,YFP fluorescence quenching using TC-5619/Bradanicline (percent quench),30 nM brd (TC-5619/Bradanicline),76.78%
same,YFP fluorescence quenching using CNL001 (percent quench),"50 nM CNL001, first column so headed",75.881%
same,YFP fluorescence quenching using CNL001 (percent quench),"50 nM CNL001, second column so headed",77.844%
same,YFP fluorescence quenching using ABT-126 (percent quench),50 nM abt (ABT-126),−14.97%
same,YFP fluorescence quenching using CNL001 (percent quench),"100 nM CNL001, first column so headed",78%
same,YFP fluorescence quenching using CNL001 (percent quench),"100 nM CNL001, second column so headed",78.575%
same,YFP fluorescence quenching (percent quench),100 nM CNL002,2.95%
same,YFP fluorescence quenching using ABT-126 (percent quench),100 nM abt (ABT-126),−14.66%
same,YFP fluorescence quenching using AZD-0328 (percent quench),100 nM azd0328,22.94%
same,YFP fluorescence quenching using ABT-126 (percent quench),300 nM abt (ABT-126),−16.35%
same,YFP fluorescence quenching using AZD-0328 (percent quench),300 nM azd0328,75.38%
same,YFP fluorescence quenching using TC-5619/Bradanicline (percent quench),300 nM brd (TC-5619/Bradanicline),77.01%
same,YFP fluorescence quenching using CNL001 (percent quench),"1 uM CNL001, first column so headed",81.126%
same,YFP fluorescence quenching using CNL001 (percent quench),"1 uM CNL001, second column so headed",79.482%
same,YFP fluorescence quenching (percent quench),1 uM CNL002,67.93%
same,YFP fluorescence quenching using ABT-126 (percent quench),1 uM abt (ABT-126),50.02%
same,YFP fluorescence quenching (percent quench),10 uM ach (acetylcholine),−16.58%
same,YFP fluorescence quenching (percent quench),30 uM CNL002,73.02%
same,YFP fluorescence quenching using AZD-0328 (percent quench),30 uM azd0328,81.8%
same,YFP fluorescence quenching (percent quench),100 uM ach (acetylcholine),75.18%
same,YFP fluorescence quenching (percent quench),1 mM ach (acetylcholine),78.99%
same,YFP fluorescence quenching (percent quench),3 mM ach (acetylcholine),75.74%
same,"YFP fluorescence quenching using Facinicline, 30 nM fac",ligand Facinicline 30 nM,−19.61
same,"YFP fluorescence quenching using Facinicline, 300 nM fac",ligand Facinicline 300 nM,76.54
same,"YFP fluorescence quenching using Facinicline, 30 uM fac",ligand Facinicline 30 uM,87.94
same,"YFP fluorescence quenching using TC-6987, 1 uM tc6987",ligand TC-6987 1 uM,72.47
same,"YFP fluorescence quenching using TC-6987, 10 uM tc6987",ligand TC-6987 10 uM,72.04
same,"YFP fluorescence quenching using TC-6987, 500 uM tc6987",ligand TC-6987 500 uM,76.56
same,"YFP fluorescence quenching using Varenicline, 3 nM var",first column,17.896
same,"YFP fluorescence quenching using Varenicline, 3 nM var",second column,12.564
same,"YFP fluorescence quenching using Varenicline, 30 nM var",first column,16.263
same,"YFP fluorescence quenching using Varenicline, 30 nM var",second column,22.117
same,"YFP fluorescence quenching using Varenicline, 300 nM var",first column,77.492
same,"YFP fluorescence quenching using Varenicline, 300 nM var",second column,79.056
same,"YFP fluorescence quenching using Varenicline, 500 nM var",first column,80.186
same,"YFP fluorescence quenching using Varenicline, 500 nM var",second column,80.065
same,"YFP fluorescence quenching using Varenicline, 1 uM var",first column,81.263
same,"YFP fluorescence quenching using Varenicline, 1 uM var",second column,80.702
